Reference: patent EP4806514A2 (Lepu Biopharma Co., Ltd., dated 2025)
Numbering of substitutions follows the chain as printed.

T1: human CDH17, full length, expressed on cells (HEK293-hCDH17); AsPC-1, HCT-8, AGS, LoVo, KATO III, HT-29 tumor … (human, UniProt Q12864 23-832)
T1 construct: also called human CDH17 expressed on tumor cells
T1 sequence: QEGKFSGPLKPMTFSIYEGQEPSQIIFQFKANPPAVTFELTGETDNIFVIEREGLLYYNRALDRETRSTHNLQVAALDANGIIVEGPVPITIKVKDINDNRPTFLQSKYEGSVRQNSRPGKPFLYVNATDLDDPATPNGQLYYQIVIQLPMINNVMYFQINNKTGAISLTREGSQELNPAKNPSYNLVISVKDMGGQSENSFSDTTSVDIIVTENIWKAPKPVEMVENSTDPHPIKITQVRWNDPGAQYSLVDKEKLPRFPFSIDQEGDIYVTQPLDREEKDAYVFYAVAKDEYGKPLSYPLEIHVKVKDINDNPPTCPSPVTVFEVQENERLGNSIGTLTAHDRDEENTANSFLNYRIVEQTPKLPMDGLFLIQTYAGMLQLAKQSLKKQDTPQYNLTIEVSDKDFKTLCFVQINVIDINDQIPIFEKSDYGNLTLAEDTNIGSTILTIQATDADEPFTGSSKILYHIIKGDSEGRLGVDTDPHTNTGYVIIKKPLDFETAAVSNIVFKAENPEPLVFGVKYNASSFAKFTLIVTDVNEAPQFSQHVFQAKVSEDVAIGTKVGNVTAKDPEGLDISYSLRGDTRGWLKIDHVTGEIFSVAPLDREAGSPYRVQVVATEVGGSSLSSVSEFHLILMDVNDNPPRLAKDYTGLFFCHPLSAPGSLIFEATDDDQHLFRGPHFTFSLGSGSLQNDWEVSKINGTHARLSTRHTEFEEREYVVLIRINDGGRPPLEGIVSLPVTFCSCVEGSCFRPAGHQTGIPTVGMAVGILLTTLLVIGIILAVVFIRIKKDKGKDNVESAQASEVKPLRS

T2: hCDH17-his (full length extracellular domain of human CDH17, Q23-M787, his tag at the C-terminal) (human, UniProt Q12864 23-787)
T2 construct: Limits of the construct (UniProt Q12864, Q23-M787, C-terminal his tag); also called human CDH17-his protein; human CDH17 protein
T2 sequence: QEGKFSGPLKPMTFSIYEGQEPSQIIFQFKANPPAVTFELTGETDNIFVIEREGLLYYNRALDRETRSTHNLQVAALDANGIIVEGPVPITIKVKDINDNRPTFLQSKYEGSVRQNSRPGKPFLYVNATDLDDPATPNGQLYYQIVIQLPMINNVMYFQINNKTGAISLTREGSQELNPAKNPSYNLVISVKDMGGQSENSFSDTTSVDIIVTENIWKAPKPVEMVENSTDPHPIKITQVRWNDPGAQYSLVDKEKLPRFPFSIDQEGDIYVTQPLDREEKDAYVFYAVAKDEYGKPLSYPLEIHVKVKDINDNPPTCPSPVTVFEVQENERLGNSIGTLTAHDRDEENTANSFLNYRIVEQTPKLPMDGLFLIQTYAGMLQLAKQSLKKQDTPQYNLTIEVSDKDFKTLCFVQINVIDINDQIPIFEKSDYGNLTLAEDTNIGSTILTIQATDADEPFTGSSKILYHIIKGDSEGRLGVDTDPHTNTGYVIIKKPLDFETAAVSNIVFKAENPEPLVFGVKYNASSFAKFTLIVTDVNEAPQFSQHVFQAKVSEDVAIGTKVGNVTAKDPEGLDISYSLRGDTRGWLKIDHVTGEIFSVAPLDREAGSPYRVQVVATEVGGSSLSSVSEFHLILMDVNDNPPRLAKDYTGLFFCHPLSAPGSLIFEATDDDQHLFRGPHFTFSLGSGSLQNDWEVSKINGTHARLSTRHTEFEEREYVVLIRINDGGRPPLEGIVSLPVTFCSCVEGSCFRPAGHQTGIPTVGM

T3: human CDH16 protein (hCDH16-his, Novoprotein, Cat. No. CJ16) (human, UniProt O75309 19-786)
T3 construct: Bought; also called human CDH16-his
T3 sequence (looked up): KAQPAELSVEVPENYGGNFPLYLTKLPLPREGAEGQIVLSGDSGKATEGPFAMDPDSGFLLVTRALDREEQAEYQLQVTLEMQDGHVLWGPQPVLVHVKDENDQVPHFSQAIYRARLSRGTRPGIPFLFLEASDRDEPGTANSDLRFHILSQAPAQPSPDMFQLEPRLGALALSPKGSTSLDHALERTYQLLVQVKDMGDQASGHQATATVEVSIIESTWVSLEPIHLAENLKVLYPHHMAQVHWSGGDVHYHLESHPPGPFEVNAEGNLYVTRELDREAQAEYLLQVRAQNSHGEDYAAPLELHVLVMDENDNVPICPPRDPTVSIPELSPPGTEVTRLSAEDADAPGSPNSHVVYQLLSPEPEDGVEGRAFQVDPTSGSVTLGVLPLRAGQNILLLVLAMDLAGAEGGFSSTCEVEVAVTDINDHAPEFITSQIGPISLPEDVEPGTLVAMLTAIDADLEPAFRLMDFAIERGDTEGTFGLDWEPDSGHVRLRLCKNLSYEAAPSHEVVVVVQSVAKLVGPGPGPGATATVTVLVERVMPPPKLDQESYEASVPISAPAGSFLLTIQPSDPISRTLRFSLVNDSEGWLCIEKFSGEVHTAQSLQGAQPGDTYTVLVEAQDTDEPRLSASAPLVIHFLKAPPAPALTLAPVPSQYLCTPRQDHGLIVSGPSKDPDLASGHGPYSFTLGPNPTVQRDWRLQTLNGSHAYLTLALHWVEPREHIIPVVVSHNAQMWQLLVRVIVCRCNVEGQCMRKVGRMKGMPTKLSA

B1: 29H8D3-z3 (antibody, V domains shown)
VH: QVQLVQSGAEVKKPGASVKVSCKASGYTFTDHTIHWVRQAPGQGLEWMGYIYPRDGYTKYNEKFKDRVTMTTDTSTSTAYMELRSLRSDDTAVYYCARFYYGYWYFDVWGQGTTVTVSS
VL: DIVMTQSPLSLPVTPGEPASISCRSSKSLLRSNGNTYLYWFLQKPGQSPQVLIYRMSNLASGVPDRFSGSGSGTDFTLKISRVEAEDVGVYYCMQHLEYPFTFGQGTKLEIK
notes: Humanized variable regions fused to human IgG1 constant region
B2: 29H8D3-z9 (antibody, V domains shown)
VH: B1 VH with V37M, M48I, V68A
VL: B1 VL
notes: Humanized, human IgG1 constant region
B3: 29H8D3-z6 (antibody, V domains shown)
VH: B1 VH with M48I, V68A
VL: B1 VL
notes: as for B2
B4: 29D2D7-z19p3-DXd (antibody, V domains shown)
VH: QVQLVQSGAEVKKPGASVKVSCKASGYTFTDYDMHWVKQAPGQGLEWIGGFDPESAGTVYNLRFKDKATLTADKSTSTAYMELRSLRSEDTAVYYCARKGYYSVSSPFTYWGQGTLVTVSS
VL: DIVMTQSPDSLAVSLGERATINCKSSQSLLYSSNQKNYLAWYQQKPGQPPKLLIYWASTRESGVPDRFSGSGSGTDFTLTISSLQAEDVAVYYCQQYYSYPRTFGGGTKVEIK
modifications: MC-GGFG-DXd (deruxtecan) conjugated to the antibody, DAR around 7.50-7.90; sites not given
notes: also called 29D2D7-z19-MC-GGFG-DXd
B5: 155B11C6 chimeric mAb (antibody, V domains shown)
VH: QVQLQQSGAELARPGASVKMSCKASGYTFTSYTMHWVKQRPGQGLEWIGYIDPKSDYNYYNQKFKDKATLTADKSSSTAYMQLSGLTSEDSTVYYCARGFFKGYFDVWGAGTTVTVSS
VL: EIVLTQSPPLMAASPGEKVTITCSVSSSISSSNLHWYQQKSETSPKPWIYGTSNLASGVPIRFSGSGSGTSYSLTISSMEAEDAATYYCQQWTSYPFTFGAGTKLELK
notes: Mouse variable regions fused to human IgG1 constant region
B6: 152A1D12-z17 (antibody, V domains shown)
VH: QVQLVQSGAEVKKPGASVKVSCKASGYTFTDYNMHWVKQAPGQRLEWIGYIYRNNGYNGYNQKFKNKATLTVDTSASTAYMELSSLRSEDTAVYYCARNYWRGAMDYWGQGTTVTVSS
VL: EIVLTQSPATLSLSPGERATLSCSASSSISYMHWYQQKPGQAPRLLIYDTSKLASGIPARFSGSGSGTDFTLTISSLEPEDFAVYYCHQRSSYPWTFGGGTKVEIK
notes: Humanized, human IgG1 constant region; also called 152A1D12 HU-VH1-3 / HU-VL2-0
B7: 152A1D12-z13 (antibody, V domains shown)
VH: B6 VH
VL: B6 VL with Q41K, R44K, I57V, A59S, E78Q, V84T
notes: Humanized, human IgG1 constant region; also called 152A1D12 HU-VH1-3 / HU-VL1-0
B8: 152A1D12-z18 (antibody, V domains shown)
VH: B6 VH
VL: B6 VL with L46W, I57V
notes: Humanized, human IgG1 constant region; also called 152A1D12 HU-VH1-3 / HU-VL2-1
B9: 155B11C6-z3 (antibody, V domains shown)
VH: QVQLVQSGAEVKKPGASVKVSCKASGYTFTSYTMHWVRQAPGQGLEWMGYIDPKSDYNYYNQKFKDRVTMTRDTSISTAYMELSRLRSDDTAVYYCARGFFKGYFDVWGQGTTVTVSS
VL: EIVLTQSPGTLSLSPGERATLSCSVSSSISSSNLHWYQQKPGQAPRPWIYGTSNLASGVPDRFSGSGSGTDYTLTISRLEPEDFAVYYCQQWTSYPFTFGQGTKLEIK
notes: Humanized, human IgG1 constant region; also called 155B11C6 HU-VH1-0 / HU-VL1-2
B10: 155B11C6-z4 (antibody, V domains shown)
VH: B9 VH
VL: B9 VL with A44S, D71S
notes: Humanized, human IgG1 constant region; also called 155B11C6 HU-VH1-0 / HU-VL1-3
B11: 155B11C6-z7 (antibody, V domains shown)
VH: B9 VH with M48I, V68A, M70L
VL: B9 VL
notes: Humanized, human IgG1 constant region; also called 155B11C6 HU-VH1-2 / HU-VL1-2

These binders were tested against T1, human CDH17, full length, expressed on … (assay: flow cytometry, AsPC-1 cells).

| binding result | Binder |
| --- | --- |
| binds | B1 |
| binds | B2 |
| binds | B3 |

What follows are binders tested against T1, human CDH17, full length, expressed on … (assay: flow cytometry, AsPC-1, AGS, KATO III and HT-29 cells).

| binding result | Binder |
| --- | --- |
| binds | B4 |

The binders below were run against T2, hCDH17-his (full length extracellular …) (assay: ELISA, hCDH17-his coated at 2 ug/mL).

| binding result | Binder |
| --- | --- |
| binds | B5 |

These binders were tested against T1, human CDH17, full length, expressed on … (assay: flow cytometry, HEK293-hCDH17 cells).

| binding result | Binder |
| --- | --- |
| binds | B5 |

What follows are binders tested against T2, hCDH17-his (full length extracellular …) (assay: SPR (Biacore 8K), antibody captured on Protein A chip, hCDH17-his injected).

| binding result | Binder |
| --- | --- |
| binds | B6 |
| binds | B7 |
| binds | B8 |
| binds | B1 |
| binds | B2 |
| binds | B3 |
| binds | B9 |
| binds | B10 |
| binds | B11 |

The binders below were run against T1, human CDH17, full length, expressed on … (assay: flow cytometry, AGS cells).

| binding result | Binder |
| --- | --- |
| binds | B6 |
| binds | B7 |
| binds | B8 |
| binds | B9 |
| binds | B10 |
| binds | B11 |

Each binder was assayed against T3, human CDH16 protein (hCDH16-his, …) (assay: ELISA, hCDH16-his coated at 1 ug/mL).

| Binder | binding result |
| --- | --- |
| B5 | no binding (tested: titrated from 100 nM) |
